27 sequences from the supplement of paper PMC9170038 can be followed below.

In the data set the test system is MS2 coat protein. Briefly: apparent KD of MS2 coat protein; designed switch direction (-1 OFF switch, 1 ON switch): 1; higher = weaker reporter binding. The method in brief: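 Designed RNA switches sharing common flanks were transcribed on Illumina chips by stalled E. coli RNA polymerase. They were titrated with SNAP-549-labelled MS2 coat protein, from 0.7 or 1.5 nM doubling to 3 µM, in Tris-HCl pH 7.5 buffer with KCl, MgCl2, BSA, DTT, tRNA and Tween-20. Titrations ran without input, with 200 uM small-molecule ligand, or with an oligonucleotide input. The apparent KD of each design is the median over its clusters, after curve-fitting of normalised cluster fluorescence.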

Where [1] appears, read: input ligand: microRNA oligo, concentration not stated.
[2] abbreviates: Eterna round: R95, input ligand: FMN 200 uM.
The mark [3] stands for this setting: Eterna round: R95, input ligand: microRNA oligo, concentration not stated.
The mark [4] stands for this setting: Eterna round: R95, input ligand: none.

“GAGAGACGAUUAGGAUAUACGGUGAUAAUGAUAGUAGAAGGAAUUGACAUGAGGAUCACCCAUGUAGGAAUAAUCCAGAGAGAG [Parity 26 - Jieux - Same State NG 1] (Eterna round: R96, puzzle: Same State NG 1)”: the “apparent KD of MS2 coat protein” value reads like this: (input ligand: FMN 200 uM) 81.2 nM; under setting [1], 93.2 nM; (input ligand: none) 86.8 nM.

“GAGAGAUGGUUAGGAUAUUCGGUGAUAAUGAUAGAAGAAGGAACUGACAUGAGGAUCACCCAUGUGGGAAUAAUCCAGAGAGAG [Parity 20 - Jieux - Same State NG 1] (Eterna round: R96, puzzle: Same State NG 1)”: the “apparent KD of MS2 coat protein” value (input ligand: FMN 200 uM) turned out to be 103 nM, the “apparent KD of MS2 coat protein” value under setting [1] worked out at 85 nM and the “apparent KD of MS2 coat protein” value (input ligand: none) is 107 nM.

Consider “GAGCCAGUCCGAGGAUAUUCAUAUAAAUUAAAUACAUGAGGAUCACCCAUGUAGGCGGAGCCUUGGGAGAAGGCGGACUGGCUC [Xeonanisa>>5] (Eterna round: R96, puzzle: Same State NG 2)”, for which the “apparent KD of MS2 coat protein” value was 22.7 nM (input ligand: FMN 200 uM), 35.9 nM under setting [1] and 58.4 nM (input ligand: none).

For the sequence “GAGCCAGUCCGAGGAUAUUCAUAUUACAUGAGGAUCACCCAUGUAGGCUCAGAAAAGGAGCCUUGGGAGAAGGCGGACUGGCUC [Xeonanisa<<3] (Eterna round: R96, puzzle: Same State NG 2)”, the “apparent KD of MS2 coat protein” value is 13.4 nM (input ligand: FMN 200 uM), 153 nM under setting [1] and 217 nM (input ligand: none).

In the case of “GAGGGACAGACCAACAUGAGGAUCACCCAUGUCCUCGCAGGUCAGGAUAUUAUGAGGAUCACCCGUGAGAAGGGACGGUGAACC (Eterna round: R96, puzzle: Same State NG 3)”, the “apparent KD of MS2 coat protein” value by setting is: (input ligand: FMN 200 uM) 606 nM; under setting [1], 468 nM; (input ligand: none) 488 nM.

For the sequence “GAGGGACGGACGAACAUGAGGAUCACCCAUGUCCUCGGAGGUCAGGAUAUCCGGAGGUAGCCGAAGGAGAAGGGACGGUGAACC [AK SSNG3-V2-31.1] (Eterna round: R96, puzzle: Same State NG 3)”, the “apparent KD of MS2 coat protein” value worked out at 104 nM (input ligand: FMN 200 uM), 51.5 nM under setting [1] and 85.7 nM (input ligand: none).

In the case of “GAGGGCGAAAGCAACAUGAGGAUCACCCAUGUUGUCGGAGGGCAGGAUAUCCGGCGAAAGCAGAAGGAGAAGGGUCGAAAAGAA [AK SSNG3-V2-39] (Eterna round: R96, puzzle: Same State NG 3)”, the “apparent KD of MS2 coat protein” value reads like this: (input ligand: FMN 200 uM) 15.5 nM; under setting [1], 13.1 nM; (input ligand: none) 21.4 nM.

With “GAGUAGGAGUUACAGGAUAUAUGGAGGUGGACAUGAGGAUCACCCAUGUGAGAGAUGAGAGGAGGAUAGAAGGGUAAGGGAGUAA [JR_SS2_Sub029] (puzzle: Same State 2)”, the “apparent KD of MS2 coat protein” value under setting [2] worked out at 189 nM, the “apparent KD of MS2 coat protein” value under setting [3] is 153 nM and the “apparent KD of MS2 coat protein” value under setting [4] is 486 nM.

Regarding “GAGUAGUUGGGAGGAUAUCGAUUGUUAUAGAAUCGAGAAGGUUUUAACAUGAGGAUCACCCAUGUAGGACUAUUCCUGUGUAUC [Parity 73 - Jieux - Same State NG 1] (Eterna round: R96, puzzle: Same State NG 1)”, the “apparent KD of MS2 coat protein” value is 127 nM (input ligand: FMN 200 uM), 68.5 nM under setting [1] and 107 nM (input ligand: none).

Consider “GAGUGGAGGAGAGGAUAUACAAUGAUAAUCACAGUAGAAGGUUCUAACAUGAGGAUCACCCAUGUAGGACUAUACCUGAGAGAA [Parity 48 - Jieux - Same State NG 1] (Eterna round: R96, puzzle: Same State NG 1)”, for which the “apparent KD of MS2 coat protein” value runs as follows: (input ligand: FMN 200 uM) 12.7 nM; under setting [1], 9.96 nM; (input ligand: none) 16 nM.

Take “GAGUGGAGGAGAGGAUAUACAUUGAUAAUCACUGUAGAAGGUUCUAACAUGAGGAUCACCCAUGUAGGACUAUUCCUGAGAGUU [Parity 52 - Jieux - Same State NG 1] (Eterna round: R96, puzzle: Same State NG 1)”: the “apparent KD of MS2 coat protein” value stood at 8.87 nM (input ligand: FMN 200 uM), 10.1 nM under setting [1] and 12.5 nM (input ligand: none).

On to “GAGUGGCGAUUAGGAUAUACAGUGAUAAUGAUAGUAGAAGGAAUUGACAUGAGGAUCACCCAUGUAGGACUAAUCCAGAGAGAG [Parity 30 - Jieux - Same State NG 1] (Eterna round: R96, puzzle: Same State NG 1)”, for which the “apparent KD of MS2 coat protein” value under setting [1] turned out to be 57 nM.

As to “GAGUUACAUGAGGAUCACCCAUGUGGUUGUGGAUAAGGAUAUAUGGUAGGAGGAGGAAUGAUAGAAGGUAUUAGGG [JR_SS1_Sub065] (puzzle: Same State 1)”, under setting [3], the “apparent KD of MS2 coat protein” value was determined as 52.9 nM.

On to “GCACUCCAAGGAGCUGCGACAUGAGGAUCACCCAUGUAAUCACAGGAUAUGCGAUUCCGAAUUUUGCAGAAGGGUGAUAAGAAC [Ratele] (Eterna round: R96, puzzle: Same State NG 3)”, for which the “apparent KD of MS2 coat protein” value by setting is: (input ligand: FMN 200 uM) 139 nM; under setting [1], 18 nM; (input ligand: none) 106 nM.

For the sequence “GCAGAACAUGAGGAUCACCCAUGUCUCAAAUAUUGAGGAUAUGGACACGGUAUAUCCGAACCAGAAGGCAAACUGC [SS1 Teenbexe 19] (puzzle: Same State 1)”, the “apparent KD of MS2 coat protein” value is, setting by setting: under setting [2], 55.8 nM; under setting [3], 74.5 nM; under setting [4], 64 nM.

Turning to “GCAGAACAUGAGGAUCACCCAUGUCUCUAAUAUUGAGGAUAUGGGCACGGUAUAUCCGAACCAGAAGGCGAACUGC [SS1 Teenbexe 16] (puzzle: Same State 1)”, the “apparent KD of MS2 coat protein” value runs as follows: under setting [2], 420 nM; under setting [3], 322 nM; under setting [4], 431 nM.

With “GCCAACGCAUGAGGAUAUGGCACCUUAUUGGUGCCAGAAGGUAUGUGUAUUCACAUGAGGAUCACCCAUGUAUUAUAGUUGGCA [Fiskers NG1ss - 17] (Eterna round: R96, puzzle: Same State NG 1)”, the “apparent KD of MS2 coat protein” value (input ligand: FMN 200 uM) was determined as 53.7 nM, the “apparent KD of MS2 coat protein” value under setting [1] is 146 nM and the “apparent KD of MS2 coat protein” value (input ligand: none) came to 183 nM.

Consider “GCCAUCGCAUGAGGAUAUGGCACCGUUUCGGUGCCAGAAGGCAUGUCGAAUGACAUGAGGAUCACCCAUGUAGUAUAGAUGGCA [JL Fiskers NG1ss - 33 mod 10] (Eterna round: R96, puzzle: Same State NG 1)”, for which the “apparent KD of MS2 coat protein” value by setting is: (input ligand: FMN 200 uM) 59 nM; under setting [1], 377 nM; (input ligand: none) 851 nM.

Regarding “GCCAUCGUAUGAGGAUAUGGCACCGAAACGGUGCCAGAAGGCAUGUCAAUUGACAUGAGGAUCACCCAUGUAUUAUCGAUGGCA [Mat - Same State NG 1 - JL mod - D89] (Eterna round: R96, puzzle: Same State NG 1)”, the “apparent KD of MS2 coat protein” value under setting [1] turned out to be 454 nM.

As for “GCCAUCGUGUGAGGAUAUGGCACCGAAACGGUGCCAGAAGGCAUGUCAAUUGACAUGAGGAUCACCCAUGUAUUAGCGAUGGCA [Mat - Same State NG 1 - JL mod - D86] (Eterna round: R96, puzzle: Same State NG 1)”, the “apparent KD of MS2 coat protein” value by setting is: (input ligand: FMN 200 uM) 181 nM; under setting [1], 994 nM; (input ligand: none) 1360 nM.

“GCCGCGUUUCGCGCCUACAUGAGGAUCACCCAUGUUUGUAGGCAGGAUAUCGUCCGCUCUGCGGGCGAGAAGGGCUGUUGUGGU [salish99_SSNG3_R04_024] (Eterna round: R96, puzzle: Same State NG 3)”: the “apparent KD of MS2 coat protein” value runs as follows: (input ligand: FMN 200 uM) 65.6 nM; under setting [1], 58.1 nM; (input ligand: none) 86.7 nM.

As to “GCCGCGUUUCGCGCCUACAUGAGGAUCACCCAUGUUUGUAGGCAGGAUAUCGUUUGCUUUGCAAACGAGAAGGGCUGUUGUGGC [salish99_SSNG3_R04_012] (Eterna round: R96, puzzle: Same State NG 3)”, the “apparent KD of MS2 coat protein” value by setting is: (input ligand: FMN 200 uM) 29.9 nM; under setting [1], 47.2 nM; (input ligand: none) 50.2 nM.

Take “GCCGGCUAAUGAGGAUAUGGCACCUUAUUGGUGCCAGAAGGCAUGUCAAUUGACAUGAGGAUCACCCAUGUAUUAUAGUUGGCG [salish99_SSNG1_r04_603] (Eterna round: R96, puzzle: Same State NG 1)”: under setting [1], the “apparent KD of MS2 coat protein” value is 211 nM.

On to “GCCGGCUGGUGAGGAUAUGGCGCCUUGUUGGUGCCAGAAGGCAUGUCUUUUGACAUGAGGAUCACCCAUGUGUUGUCGUUGGCG [salish99_SSNG1_r04_613] (Eterna round: R96, puzzle: Same State NG 1)”, for which the “apparent KD of MS2 coat protein” value runs as follows: (input ligand: FMN 200 uM) 221 nM; under setting [1], 72.3 nM; (input ligand: none) 47.8 nM.

Consider “GCCGUAAACAUGAGGAUCACCCAUGUAAACGCGAGAGUGGAUGAGGAUAUCGAUGGGUUUCCCGUCGAGAAGGCGUGGGUCGGC [JL SSNG3 3.99] (Eterna round: R96, puzzle: Same State NG 3)”, for which the “apparent KD of MS2 coat protein” value (input ligand: FMN 200 uM) amounted to 36.2 nM, the “apparent KD of MS2 coat protein” value under setting [1] came out at 31.8 nM and the “apparent KD of MS2 coat protein” value (input ligand: none) was found to be 46.1 nM.

Regarding “GCGAGCGUACUUGCUACAUGAGGAUCACCCAUGUCUGUUGGACAGGAUAUGGUACCGUUUCGGUACCAGAAGGGUUCAUCAUGU [JL SSNG3 3.74] (Eterna round: R96, puzzle: Same State NG 3)”, the “apparent KD of MS2 coat protein” value stood at 439 nM (input ligand: FMN 200 uM), 74 nM under setting [1] and 262 nM (input ligand: none).

Turning to “GCGAGCGUACUUGCUACAUGAGGAUCACCCAUGUUCAUUGGACAGGAUAUGGUACCGUUUCGGUACCAGAAGGGUUCAUCAUGU [JL SSNG3 3.73] (Eterna round: R96, puzzle: Same State NG 3)”, the “apparent KD of MS2 coat protein” value reads like this: (input ligand: FMN 200 uM) 1190 nM; under setting [1], 26.6 nM; (input ligand: none) 585 nM.
